From the supplement of paper PMC11246515
± gives the standard deviation of the averaged measurements.

Assay: total protein half-life in vivo (active degradation + dilution); higher = more stable protein
[1] = E. coli NCM3722 delta-clpP delta-lon delta-hslV, growth: N-lim chemostat, doubling time 6 h
[2] = E. coli NCM3722 delta-hslV, growth: N-lim chemostat, doubling time 6 h
[3] = E. coli NCM3722 delta-lon, growth: N-lim chemostat, doubling time 6 h
[4] = E. coli NCM3722 delta-smpB, growth: N-lim chemostat, doubling time 6 h
[5] = wild type E. coli NCM3722, growth: C-lim chemostat, doubling time 3 h
[6] = wild type E. coli NCM3722, growth: C-lim chemostat, doubling time 6 h
[7] = wild type E. coli NCM3722, growth: C-lim chemostat, doubling time 12 h
[8] = wild type E. coli NCM3722, growth: N-lim chemostat, doubling time 6 h
[9] = wild type E. coli NCM3722, growth: N-lim chemostat, doubling time 12 h
[10] = wild type E. coli NCM3722, growth: P-lim chemostat, doubling time 6 h
[11] = wild type E. coli NCM3722, growth: P-lim chemostat, doubling time 12 h
[12] = E. coli NCM3722 delta-clpP, growth: N-lim chemostat, doubling time 6 h

## MSSKVERERRKAQLLSQIQQQRLDLSASRREWLETTGAYDRRWNMLLSLRSWALVGSSVMAIWTIRHPNMLVRWARRGFGVWSAWRLVKTTLKQQQLRG
[1]
  total protein half-life in vivo: 5.54 ± 0.84 h
[2]
  total protein half-life in vivo: 6 ± 0.61 h
[3]
  total protein half-life in vivo: 4.6 ± 1.6 h
[4]
  total protein half-life in vivo: 5.78 ± 0.53 h
[5]
  total protein half-life in vivo: 2.56 ± 0.29 h
[6]
  total protein half-life in vivo: 4.85 ± 0.21 h
[7]
  total protein half-life in vivo: 8.71 h
[8]
  total protein half-life in vivo: 5.6 ± 1.8 h
[9]
  total protein half-life in vivo: 11.4 h
[10]
  total protein half-life in vivo: 4.85 h
[11]
  total protein half-life in vivo: 10.2 ± 0.32 h

## MRVLKFGGTSVANAERFLRVADILESNARQGQVATVLSAPAKITNHLVAMIEKTISGQDALPNISDAERIFAELLTGLAAAQPGFPLAQLKTFVDQEFAQIKHVLHGISLLGQCPDSINAALICRGEKMSIAIMAGVLEARGHNVTVIDPVEKLLAVGHYLESTVDIAESTRRIAASRIPADHMVLMAGFTAGNEKGELVVLGRNGSDYSAAVLAACLRADCCEIWTDVDGVYTCDPRQVPDARLLKSMSYQEAMELSYFGAKVLHPRTITPIAQFQIPCLIKNTGNPQAPGTLIGASRDEDELPVKGISNLNNMAMFSVSGPGMKGMVGMAARVFAAMSRARISVVLITQSSSEYSISFCVPQSDCVRAERAMQEEFYLELKEGLLEPLAVTERLAIISVVGDGMRTLRGISAKFFAALARANINIVAIAQGSSERSISVVVNNDDATTGVRVTHQMLFNTDQVIEVFVIGVGGVGGALLEQLKRQQSWLKNKHIDLRVCGVANSKALLTNVHGLNLENWQEELAQAKEPFNLGRLIRLVKEYHLLNPVIVDCTSSQAVADQYADFLREGFHVVTPNKKANTSSMDYYHQLRYAAEKSRRKFLYDTNVGAGLPVIENLQNLLNAGDELMKFSGILSGSLSYIFGKLDEGMSFSEATTLAREMGYTEPDPRDDLSGMDVARKLLILARETGRELELADIEIEPVLPAEFNAEGDVAAFMANLSQLDDLFAARVAKARDEGKVLRYVGNIDEDGVCRVKIAEVDGNDPLFKVKNGENALAFYSHYYQPLPLVLRGYGAGNDVTAAGVFADLLRTLSWKLGV
[1]
  total protein half-life in vivo: 5.65 ± 0.16 h
[12]
  total protein half-life in vivo: 4.31 ± 0.13 h
[2]
  total protein half-life in vivo: 4.513 ± 0.01 h
[3]
  total protein half-life in vivo: 4.89 ± 0.11 h
[4]
  total protein half-life in vivo: 4.13 ± 0.11 h
[5]
  total protein half-life in vivo: 3.08 ± 0.21 h
[6]
  total protein half-life in vivo: 5.9 ± 0.22 h
[7]
  total protein half-life in vivo: 13.5 ± 0.33 h
[8]
  total protein half-life in vivo: 4.29 ± 0.33 h
[9]
  total protein half-life in vivo: 7.56 ± 0.76 h
[10]
  total protein half-life in vivo: 6.53 ± 0.39 h
[11]
  total protein half-life in vivo: 12.2 ± 0.26 h

## MSSVSTSGSGAPKSSFSFGRIWDQYGMLVVFAVLFIACAIFVPNFATFINMKGLGLAISMSGMVACGMLFCLASGDFDLSVASVIACAGVTTAVVINLTESLWIGVAAGLLLGVLCGLVNGFVIAKLKINALITTLATMQIVRGLAYIISDGKAVGIEDESFFALGYANWFGLPAPIWLTVACLIIFGLLLNKTTFGRNTLAIGGNEEAARLAGVPVVRTKIIIFVLSGLVSAIAGIILASRMTSGQPMTSIGYELIVISACVLGGVSLKGGIGKISYVVAGILILGTVENAMNLLNISPFAQYVVRGLILLAAVIFDRYKQKAKRTV [P0AE26]
[5]
  total protein half-life in vivo: 2.54 ± 0.33 h
[6]
  total protein half-life in vivo: 4.04 ± 0.19 h
[7]
  total protein half-life in vivo: 7.44 ± 0.65 h

## MMNDGKQQSTFLFHDYETFGTHPALDRPAQFAAIRTDSEFNVIGEPEVFYCKPADDYLPQPGAVLITGITPQEARAKGENEAAFAARIHSLFTVPKTCILGYNNVRFDDEVTRNIFYRNFYDPYAWSWQHDNSRWDLLDVMRACYALRPEGINWPENDDGLPSFRLEHLTKANGIEHSNAHDAMADVYATIAMAKLVKTRQPRLFDYLFTHRNKHKLMALIDVPQMKPLVHVSGMFGAWRGNTSWVAPLAWHPENRNAVIMVDLAGDISPLLELDSDTLRERLYTAKTDLGDNAAVPVKLVHINKCPVLAQANTLRPEDADRLGINRQHCLDNLKILRENPQVREKVVAIFAEAEPFTPSDNVDAQLYNGFFSDADRAAMKIVLETEPRNLPALDITFVDKRIEKLLFNYRARNFPGTLDYAEQQRWLEHRRQVFTPEFLQGYADELQMLVQQYADDKEKVALLKALWQYAEEIV
[1]
  total protein half-life in vivo: 5.14 ± 0.17 h
[12]
  total protein half-life in vivo: 4.99 ± 0.24 h
[2]
  total protein half-life in vivo: 4.41 ± 0.22 h
[4]
  total protein half-life in vivo: 3.9722 ± 0.0028 h
[5]
  total protein half-life in vivo: 3.12 ± 0.044 h
[6]
  total protein half-life in vivo: 5.87 ± 0.28 h
[7]
  total protein half-life in vivo: 9.97 ± 1.4 h
[8]
  total protein half-life in vivo: 4.297 ± 0.027 h
[9]
  total protein half-life in vivo: 6.577 ± 0.033 h
[10]
  total protein half-life in vivo: 6.73 ± 0.97 h
[11]
  total protein half-life in vivo: 12.3 ± 0.74 h

## MPTSHENALQQRCQQIVTSPVLSPEQKRHFLALEAENNLPYPQLPAEARRALDEGVICDMFEGHAPYKPRYVLPDYARFLANGSEWLELEGAKDLDDALSLLTILYHHVPSVTSMPVYLGQLDALLQPYVRILTQDEIDVRIKRFWRYLDRTLPDAFMHANIGPSDSPITRAILRADAELKQVSPNLTFIYDPEITPDDLLLEVAKNICECSKPHIANGPVHDKIFTKGGYGIVSCYNSLPLAGGGSTLVRLNLKAIAERSESLDDFFTRTLPHYCQQQIAIIDARCEFLYQQSHFFENSFLVKEGLINPERFVPMFGMYGLAEAVNLLCEKEGIAARYGKEAAANEVGYRISAQLAEFVANTPVKYGWQKRAMLHAQSGISSDIGTTPGARLPYGDEPDPITHLQTVAPHHAYYYSGISDILTLDETIKRNPQALVQLCLGAFKAGMREFTANVSGNDLVRVTGYMVRLSDLEKYRAEGSRTNTTWLGEEAARNTRILERQPRVISHEQQMRFSQ
[1]
  total protein half-life in vivo: 4.57 h
[3]
  total protein half-life in vivo: 3.47 h
[5]
  total protein half-life in vivo: 2.7 h
[6]
  total protein half-life in vivo: 3.94 h
[7]
  total protein half-life in vivo: 6.17 h
[10]
  total protein half-life in vivo: 3.51 h
[11]
  total protein half-life in vivo: 5.66 h

## MKKVVTVCPYCASGCKINLVVDNGKIVRAEAAQGKTNQGTLCLKGYYGWDFINDTQILTPRLKTPMIRRQRGGKLEPVSWDEALNYVAERLSAIKEKYGPDAIQTTGSSRGTGNETNYVMQKFARAVIGTNNVDCCARVUHGPSVAGLHQSVGNGAMSNAINEIDNTDLVFVFGYNPADSHPIVANHVINAKRNGAKIIVCDPRKIETARIADMHIALKNGSNIALLNAMGHVIIEENLYDKAFVASRTEGFEEYRKIVEGYTPESVEDITGVSASEIRQAARMYAQAKSAAILWGMGVTQFYQGVETVRSLTSLAMLTGNLGKPHAGVNPVRGQNNVQGACDMGALPDTYPGYQYVKDPANREKFAKAWGVESLPAHTGYRISELPHRAAHGEVRAAYIMGEDPLQTDAELSAVRKAFEDLELVIVQDIFMTKTASAADVILPSTSWGEHEGVFTAADRGFQRFFKAVEPKWDLKTDWQIISEIATRMGYPMHYNNTQEIWDELRHLCPDFYGATYEKMGELGFIQWPCRDTSDADQGTSYLFKEKFDTPNGLAQFFTCDWVAPIDKLTDEYPMVLSTVREVGHYSCRSMTGNCAALAALADEPGYAQINTEDAKRLGIEDEALVWVHSRKGKIITRAQVSDRPNKGAIYMTYQWWIGACNELVTENLSPITKTPEYKYCAVRVEPIADQRAAEQYVIDEYNKLKTRLREAALA
[1]
  total protein half-life in vivo: 4.17 ± 0.28 h
